Assay [1] has as its target T1, Human C5 (human, UniProt P01031 19-1676).
T1 construct: The natural protein has a beta and an alpha chain; also called complement factor 5; complement component 5
As to the kind of experiment: SPR, mAb captured by anti-hFc, 37C. The procedure, abridged: (§1)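 Real-time surface plasmon resonance measures C5 binding to Fc-captured anti-C5 antibodies in HEPES-buffered saline, pH 7.4, containing EDTA and surfactant P20.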

The next assay addresses T2, monkey C5-mmh (monkey, UniProt P01031 19-1676 (human entry), limits assumed).
T2 construct: Expressed with a C-terminal myc-myc-hexahistidine tag
T2 chain: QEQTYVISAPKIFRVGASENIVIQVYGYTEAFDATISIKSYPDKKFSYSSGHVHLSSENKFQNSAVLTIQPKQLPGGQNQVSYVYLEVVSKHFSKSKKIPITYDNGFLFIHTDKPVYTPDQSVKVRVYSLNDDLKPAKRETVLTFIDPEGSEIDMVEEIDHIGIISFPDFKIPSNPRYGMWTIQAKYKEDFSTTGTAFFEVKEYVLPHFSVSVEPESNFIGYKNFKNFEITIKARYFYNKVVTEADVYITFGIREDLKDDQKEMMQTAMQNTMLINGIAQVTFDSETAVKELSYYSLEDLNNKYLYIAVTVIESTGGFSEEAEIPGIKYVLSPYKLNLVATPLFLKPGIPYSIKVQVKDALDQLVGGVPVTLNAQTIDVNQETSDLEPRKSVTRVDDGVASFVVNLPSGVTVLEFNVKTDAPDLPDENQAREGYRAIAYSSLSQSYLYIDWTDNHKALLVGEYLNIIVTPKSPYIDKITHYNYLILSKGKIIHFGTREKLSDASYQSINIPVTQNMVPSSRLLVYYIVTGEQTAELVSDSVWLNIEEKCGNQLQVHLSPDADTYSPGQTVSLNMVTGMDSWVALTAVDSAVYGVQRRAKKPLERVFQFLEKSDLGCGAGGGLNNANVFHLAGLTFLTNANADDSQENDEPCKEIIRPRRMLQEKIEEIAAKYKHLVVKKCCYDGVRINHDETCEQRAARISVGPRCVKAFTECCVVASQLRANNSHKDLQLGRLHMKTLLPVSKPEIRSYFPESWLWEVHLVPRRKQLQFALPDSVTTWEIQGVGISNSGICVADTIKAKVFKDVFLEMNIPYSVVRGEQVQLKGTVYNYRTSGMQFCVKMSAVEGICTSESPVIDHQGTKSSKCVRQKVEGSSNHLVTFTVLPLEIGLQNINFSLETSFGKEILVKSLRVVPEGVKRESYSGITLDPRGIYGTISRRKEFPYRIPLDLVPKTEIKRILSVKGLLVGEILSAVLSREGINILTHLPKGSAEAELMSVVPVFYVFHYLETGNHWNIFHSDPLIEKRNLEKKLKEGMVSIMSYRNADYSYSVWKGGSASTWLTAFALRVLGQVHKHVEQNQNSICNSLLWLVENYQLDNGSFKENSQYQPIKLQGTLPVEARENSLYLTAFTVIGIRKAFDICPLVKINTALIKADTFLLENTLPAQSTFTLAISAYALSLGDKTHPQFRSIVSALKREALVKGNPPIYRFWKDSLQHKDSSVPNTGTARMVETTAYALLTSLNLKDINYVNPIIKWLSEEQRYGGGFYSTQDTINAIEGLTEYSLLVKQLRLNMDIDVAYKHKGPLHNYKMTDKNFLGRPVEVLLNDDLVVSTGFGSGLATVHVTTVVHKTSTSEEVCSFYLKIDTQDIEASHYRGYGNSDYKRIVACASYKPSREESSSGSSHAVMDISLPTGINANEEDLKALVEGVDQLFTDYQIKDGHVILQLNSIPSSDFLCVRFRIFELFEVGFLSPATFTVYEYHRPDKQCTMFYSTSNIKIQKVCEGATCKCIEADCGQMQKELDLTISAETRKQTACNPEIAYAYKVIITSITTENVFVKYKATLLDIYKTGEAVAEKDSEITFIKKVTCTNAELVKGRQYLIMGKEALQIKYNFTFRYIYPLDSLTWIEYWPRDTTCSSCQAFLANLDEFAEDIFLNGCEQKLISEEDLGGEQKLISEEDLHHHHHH
In words: SPR, mAb captured by anti-hFc, 25C. The procedure, abridged: as §1

Assay [2] addresses T1, Human C5. As to the kind of experiment: SPR, mAb captured by anti-hFc, 25C. A digest of the protocol: as §1

B1: H4H12171P (antibody, human IgG4, V domains shown)
VH: EVQLVESGGGVVRPGGSLRLSCAASGFTFDEYGMTWVRQVPGKGLEWVSGITWNGGFTDYTDSVKGRFTSSRDNAKNSLYLQMNSLRAEDTALYYCARDGYSSSWGAYDIWGQGTMVTVSS
VL: DIQMTQSPSSLSASVGDRVTITCRASQSISTYLNWYQQKPGKAPKLLIYAASSLQSGVPLRFSGSGSGTDFTLTISSLQPEDFASYFCQQSYSTPYTFGQGTKLEIK
For B1, in the assay with Human C5 [1], the “100 nM Human C5 Bound (RU)” value was 58 RU, the Kd stood at 6.27 nM, the koff was 0.000762 s⁻¹ and the kon worked out at 122000 M⁻¹ s⁻¹. This molecule also yielded a t½ in the assay with Human C5 [1] of 15 min. Moreover, in the assay with monkey C5-mmh, the “100 nM monkey C5-mmh Bound (RU)” value turned out to be 17 RU, binding was characterised by a dissociation constant (Kd) of 4.92 nM, the koff worked out at 0.000226 s⁻¹ and the kon was found to be 46000 M⁻¹ s⁻¹. Moreover, the “t1/2” value in the assay with monkey C5-mmh came to 51 min. Moreover, in the assay with Human C5 [2], the “100 nM Human C5 Bound (RU)” value was determined as 64 RU, binding was put at a Kd of 0.549 nM, the koff was 8.16e-05 s⁻¹ and the kon stood at 149000 M⁻¹ s⁻¹. The same molecule displayed a t½ with Human C5 [2] of 142 min.

B2: H4H11683N (antibody, human IgG4, V domains shown)
VH: QVQLVESGGGVVQPGRSLRLSCVASGFTFSSYGIHWVRQAPGKGLEWVAVIWDDGNNINYSDSVKGRFIISRDNSRKTVYLQMNSLRGEDTAVYYCARDAPIAPVPDYWGQGTLVTVSS
VL: DIQMTQSPSTLSASVGDRVTITCRASQSISSWLAWYQQKPGKAPKLLIYKASSLDTGVPSRFSGSGSGTEFTLTISSLQPDDFATYYCQQYNTYSYTFGLGTKLEIK
notes: also called H2M11683N
For the molecule B2, in the assay with Human C5 [1], the “100 nM Human C5 Bound (RU)” value came to 492 RU, the Kd is 0.532 nM, the koff came to 0.000241 s⁻¹ and the kon stood at 454000 M⁻¹ s⁻¹. In the assay with Human C5 [1], this molecule came in with a t½ of 48 min. Moreover, in the assay with monkey C5-mmh, the “100 nM monkey C5-mmh Bound (RU)” value is 403 RU, the Kd was 0.64 nM, the koff was 0.000247 s⁻¹ and the kon came to 386000 M⁻¹ s⁻¹. Also, the “t1/2” value in the assay with monkey C5-mmh worked out at 47 min. Moreover, in the assay with Human C5 [2], the “100 nM Human C5 Bound (RU)” value was found to be 439 RU, binding was put at a Kd of 0.123 nM, the koff was found to be 5.14e-05 s⁻¹ and the on-rate (kon) was determined as 417000 M⁻¹ s⁻¹. The t½ in the assay with Human C5 [2] worked out at 225 min.

The record behind these values is patent US20170355757A1 (Regeneron, published 2017).
